Measured values taken from patent publication US20110152199A1 (ONCOTHERAPY SCIENCE, published 2011).

Molecular target: T1, HLA-A2 (HLA-A*0201) on cells (human, UniProt P04439 25-302 at identity 0.94))
T1 MHC heavy: not shown
Test: cell-based or functional assay

IFN-γ production by healthy donor 1-derived CTLs against T2 cells pulsed with the peptide at various concentrations (E/T ratio 5): ≥ 0.2 µg/mL
B1: CDCA1 351-359 (No. 4) peptide (peptide)
peptide: KLATAQFKI
